This passage reports Ki and inflection temperature T i of AtLEGβ by nanoDSF results from paper PMC10952133, “Phytocystatin 6 is a context‐dependent, tight‐binding inhibitor of Arabidopsis thaliana legumain isoform β” (The Plant Journal, 2023).

A word on the Ki: it is a measure of affinity in units of concentration, obtained from inhibition or displacement. Higher therefore signals a looser hold on the target.

Read-outs that look alike come from different tables or passages of the source.

Assay [1] has as its target Arabidopsis thaliana legumain isoform β, activated (AtLEGβ) (Arabidopsis thaliana) (UniProt Q39044). The assay can be described thus: enzyme inhibition kinetics (Ki, Morrison equation); turnover of 50 μM Z-Ala-Ala-Asn-AMC by 50 nM legumain, 25°C, 20 mM citric acid pH 5.5, 100 mM NaCl, 0.02% Tween 20, 2 mM DTT; inhibitor in 1:2 serial dilutions from 15-fold the enzyme concentration, quadruplicates.

For assay [2] the target is unchanged.
Assay [3] deals with Arabidopsis thaliana legumain isoform γ, activated (AtLEGγ) (Arabidopsis thaliana) (UniProt Q39119). Briefly: enzyme inhibition kinetics (Ki, Morrison equation); turnover of 50 μM Z-Ala-Ala-Asn-AMC by 50 nM legumain, 25°C, 20 mM citric acid pH 5.5, 100 mM NaCl, 0.02% Tween 20, 2 mM DTT; inhibitor in 1:2 serial dilutions from 15-fold the enzyme concentration, quadruplicates.
The target of assay [4] is human legumain, activated (hLEG) (human) (UniProt Q99538). The assay is described as above.
For assay [5], the target named is T1, Papain from Carica papaya (Carica papaya, UniProt P00784 134-345).
T1 construct: papain of Carica papaya, used as a model of the papain-like cysteine proteases; source: bought: Merck
T1 sequence (looked up): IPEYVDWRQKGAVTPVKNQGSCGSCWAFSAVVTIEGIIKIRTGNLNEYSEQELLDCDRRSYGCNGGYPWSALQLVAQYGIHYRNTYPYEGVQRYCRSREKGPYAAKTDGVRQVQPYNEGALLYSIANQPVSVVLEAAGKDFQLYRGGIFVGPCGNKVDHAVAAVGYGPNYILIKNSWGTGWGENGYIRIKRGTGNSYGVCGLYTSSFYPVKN
Briefly: enzyme inhibition kinetics (Ki, Morrison equation); turnover of 50 μM Z-Phe-Arg-AMC by 50 nM papain, 25°C, 20 mM MES pH 6.0 (legend of Figure 3: pH 6.5), 50 mM NaCl, 0.02% Tween 20, 2 mM DTT; inhibitor in 1:2 serial dilutions from 15-fold the enzyme concentration, quadruplicates.

Arabidopsis thaliana legumain isoform β, activated (AtLEGβ) (Arabidopsis thaliana), sequence (Q39044 22-486): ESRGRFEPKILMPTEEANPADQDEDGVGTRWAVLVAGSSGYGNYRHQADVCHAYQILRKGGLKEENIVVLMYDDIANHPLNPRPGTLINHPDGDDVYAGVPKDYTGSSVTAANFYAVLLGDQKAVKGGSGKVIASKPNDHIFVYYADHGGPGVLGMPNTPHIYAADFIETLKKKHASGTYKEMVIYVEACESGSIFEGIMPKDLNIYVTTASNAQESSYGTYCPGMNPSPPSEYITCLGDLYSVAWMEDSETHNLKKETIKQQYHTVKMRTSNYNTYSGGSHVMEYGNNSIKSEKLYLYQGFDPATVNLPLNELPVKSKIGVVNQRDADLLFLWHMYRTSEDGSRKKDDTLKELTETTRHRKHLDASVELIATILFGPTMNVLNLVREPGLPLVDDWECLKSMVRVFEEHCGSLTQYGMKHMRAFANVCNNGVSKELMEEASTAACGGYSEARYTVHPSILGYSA
human legumain, activated (hLEG) (human), sequence (Q99538 18-323): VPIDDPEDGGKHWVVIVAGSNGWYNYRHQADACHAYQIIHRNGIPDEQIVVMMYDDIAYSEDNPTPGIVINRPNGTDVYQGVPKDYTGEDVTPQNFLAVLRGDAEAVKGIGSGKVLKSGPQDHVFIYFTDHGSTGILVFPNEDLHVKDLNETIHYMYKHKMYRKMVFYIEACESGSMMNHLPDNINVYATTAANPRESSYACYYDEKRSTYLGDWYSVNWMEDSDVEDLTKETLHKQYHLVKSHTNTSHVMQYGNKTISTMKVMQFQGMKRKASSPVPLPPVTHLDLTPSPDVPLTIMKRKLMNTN
Arabidopsis thaliana legumain isoform γ, activated (AtLEGγ) (Arabidopsis thaliana), sequence (Q39119 30-494): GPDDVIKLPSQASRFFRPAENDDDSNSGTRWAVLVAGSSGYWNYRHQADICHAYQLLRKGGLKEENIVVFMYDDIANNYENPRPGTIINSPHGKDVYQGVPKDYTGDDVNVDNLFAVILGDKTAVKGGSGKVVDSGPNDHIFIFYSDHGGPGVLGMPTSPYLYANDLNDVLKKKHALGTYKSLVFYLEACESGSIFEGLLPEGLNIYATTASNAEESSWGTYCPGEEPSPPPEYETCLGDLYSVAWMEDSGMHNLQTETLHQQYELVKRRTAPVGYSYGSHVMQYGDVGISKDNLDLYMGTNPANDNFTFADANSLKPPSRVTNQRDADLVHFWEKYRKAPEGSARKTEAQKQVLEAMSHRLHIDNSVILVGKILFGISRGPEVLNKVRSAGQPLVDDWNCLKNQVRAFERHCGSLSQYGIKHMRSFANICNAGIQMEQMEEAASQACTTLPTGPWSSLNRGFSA

AtCYT6-CTD-K208A (domain or fragment) returned an inhibitory constant (Ki) in assay [1] of 3.98 nM.

AtCYT6-CTD-R205A (domain or fragment): the Ki in assay [1] came to 3.36 nM.

Consider “C-terminal domain of AtCYT6 (AtCYT6-CTD, E142-D235) (domain or fragment)”, for which the inflection temperature T i of AtLEGβ by nanoDSF at pH 6.5, equimolar AtCYT6-CTD (AtLEGβ alone 49.6°C) in assay [2] came to 57 °C. Further, the inhibitory constant (Ki) amounted to 0.61 nM in assay [1], 0.86 nM in assay [3] and 61.4 nM in assay [4].

Turning to “C-terminal domain of AtCYT6 carrying the interdomain linker (AtCYT6-CTDlong, A128-D235) (domain or fragment)”, the inhibitory constant (Ki) in assay [1] is 0.68 nM.

Consider “full-length AtCYT6 lacking the N-terminal signal peptide (AtCYT6-FL, A35-D235) (natural protein)”, for which the inflection temperature T i of AtLEGβ by nanoDSF at pH 6.5, equimolar AtCYT6-FL (AtLEGβ alone 49.6°C) in assay [2] stood at 58.9 °C. Also, the Ki came out at 0.29 nM in assay [1], 1.21 nM in assay [3], 106 nM in assay [4] and 27.8 nM in assay [5].

B1: N-terminal domain of AtCYT6 (AtCYT6-NTD, A35-D127) (domain or fragment, Arabidopsis thaliana, UniProt Q8H0X6-1 35-127, looked up)
chain: ALVGGVGDVPANQNSGEVESLARFAVDEHNKKENALLEFARVVKAKEQVVAGTLHHLTLEILEAGQKKLYEAKVWVKPWLNFKELQEFKPASD
notes: Arabidopsis thaliana cystatin 6, N-terminal cystatin domain, residues A35-D127; Cloned into pET-28; source: E. coli BL21(DE3), purified (Ni-NTA, SEC)
For the molecule B1, the Ki in assay [5] (both partners purified) amounted to 6.3 ± 1.43 nM.
